Biological target: T1, extracellular domain recombinant protein RAGE (11629-H08H, Sino Biological Inc.) (UniProt Q15109 23-342, labeled with RED fluorescent dye NT-647-NHS (sites not given))
T1 construct: extracellular domain; Bought protein; also called Receptor for Advanced Glycation End products
Test: MST (Microscale Thermophoresis), NT-647-labeled RAGE extracellular domain, peptide titrated 50 uM to 1.52 nM, mean of three runs
Protocol: Specifically, the binding capacity of the peptide of Example 1 or 2 to RAGE was measured using MST (Microscale Thermophoresis).
Using a kit {Monolith NT™ Protein Labeling Kit RED-NHS (L001, NanoTemper Technologies)}, an extracellular domain recombinant protein RAGE (11629-H08H, Sino Biological Inc.) was bound to a RED fluorescent dye NT-647-NHS and then purified. Thereafter, a RAGE solution in which the concentration of the RED fluorescent dye NT-647-NHS labeled RAGE in an MST buffer (50 mM Tris-HCl pH 7.4, 150 mM NaCl, 10 mM MgCl₂, 0.05% Tween-20) solution was 20 μM was prepared. Also, a peptide solution was prepared in a 16-step dilution series, in which dilution was repeated with the MST buffer until the concentration of the peptide of Example 1 or Example 2 became 1.52 nM starting from 50 μM. Thereafter, the RAGE solution and the peptide solution were mixed in amounts of 100 μl each, injected into a capillary tube and then placed in the order of concentration in a Monolith NT. 115 tray (G009, NanoTemper technologies). The software was operated in accordance with the Monolith NT. 115 operating method. The same procedure was repeated three times, and the mean value of Kd (dissociation constant) was obtained.

T1 sequence (Q15109 23-342 limits assumed): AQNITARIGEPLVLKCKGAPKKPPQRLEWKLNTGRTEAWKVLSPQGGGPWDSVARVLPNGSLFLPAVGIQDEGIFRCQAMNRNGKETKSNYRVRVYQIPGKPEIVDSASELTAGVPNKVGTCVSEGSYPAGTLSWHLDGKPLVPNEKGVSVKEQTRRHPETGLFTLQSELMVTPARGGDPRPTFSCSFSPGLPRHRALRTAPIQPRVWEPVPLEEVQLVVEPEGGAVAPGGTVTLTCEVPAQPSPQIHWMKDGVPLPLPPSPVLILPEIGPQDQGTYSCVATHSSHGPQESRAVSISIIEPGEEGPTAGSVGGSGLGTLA

Binder | Kd [nM]
DGEFF (Synthetic peptide made by AnyGen Co., Ltd) [peptide of Example 1 (DGEFF)] | 76.9
DGEF (Synthetic peptide made by AnyGen Co., Ltd) [peptide of Example 2 (DGEF)] | 80.9
